According to a protein production outcome set (Wang et al. 2014):

assay: label from the status in PepcDB records

| Sequence | protein production |
| --- | --- |
| SLMAGSFCWRMLGLVSKVGNRARCFSSVAASEEELLDFSGSELQFNSCSLHLSLHPFFNFLLGIHSCFVCKESKTDVKRCVVTQCGKFYHEACVKKYPLTVFESRGFRCPLHSCVSCHASNPSNPRPSKGKMMRCVRCPVAYHSGDACLAAGCSVIASNSIICTAHFTARKGKRHHAHVNVSWCFVCSKGGSLLCCESCPAAFHPDCLNIEMPDGSWFCNDCRAGKKLHFQDIIWVKLGNYRWWPAEVCHPKNVPPNIQKMKHEIGEFPVFFFGSKDYYWTHQARVFPYMEGDRGSRYQGVRGIGRVFKNALQEAEARFREIKLQREARETQESERKPPPYKHIKVNKPYGKVQIYTADISEIPKCNCKPTDENPCGFDSECLNRMLMFECHPQVCPAGEFCQNQCFTKRQYPETKIIKTDGKGWGLVAKRDIRKGEFVNEYVGELIDEEECMARIKHAHENDITHFYMLTIDKDRIIDAGPKGNYSRFMNHSCQPNCETLKWTVNGDTRVGLFAVCDIPAGTELTFNYNLDCLGNEKTVCRCGASNCSGFLGDRPKTSTTLSSEEKGKKTKKKTRRRRAKGEGKRQSEDECFRCGDGGQLVLCDRKFCTKAYHLSCLGLGKRPFGKWECPWHHCDVCGKPSTSFCHLCPNSFCKEHQDGTAFSCTPDGRSYCCEHDLGAASVRSTKTEKPPPEPGKPKGKRRRRRGWRRVTEGK | not failed |
| SLPIASTATQMGSNKTRIFARQPAKAPPPLAWLSRPRDPRATAIAAAGQQSSRRVSKRELESHGSATDAWTAIHGVVYDITAYFRFHPGGAEILFIEAAGKDSTAVFDEMHPWVNVAWLLKDYRIGLYAPESEDDGGDDDDDDRTMTSPE | not failed |
| SLQCIFLISDSGEVMLEKQLTGHRVDRSICAWFWDQYISQGDSFKALPVIASPTHYLFQIVRDGITFLACSQVEMPPLMAIEFLCRVADVLSEYLGGLNEDLIKDNFIIVYELLDEMIDNGFPLTTEPSILKEMIAPPNLVSKMLSVVTGNASNVSDTLPSGAGSCVPWRPTDPKYSSNEVYVDLVEEMDAIVNRDGELVKCEIYGEVQMNSQLTGFPDLTLSFANPSILEDMRFHPCVRYRPWESHQVLSFVPPDGEFKLMSYRVKKLKNTPVYVKPQITSDSGTCRISVLVGIRSDPGKTIESITLSFQLPHCVSSADLSSNHGTVTILSNKTCTWTIGRIPKDKTPCLSGTLALEPGLERLHVFPTFKLGFKIMGIALSGLRIEKLDLQTIPPRLYKGFRAQTRTGEFDVRL | failed |
| SLRADKPKCSIQNFFIPALGKDPNSRDNTTLNFMVRCDNPNKDKGIYYDDVHLNFSTINTTKINSSALVLVGNYTVPKFYQGHKKKAKKWGQVKPLNNQTVLRAVLPNGSAVFRLDLKTQVRFKIVFWKTKRYGVEVGADVEVNGDGVKAQKKGIKMKKS | not failed |
| SLRREMQEILPGLFLGPYSSAMKSKLPVLQKHGITHIICIRQNIEANFIKPNFQQLFRYLVLDIADNPVENIIRFFPMTKEFIDGSLQMGGKVLVHGNAGISRSAAFVIAYIMETFGMKYRDAFAYVQERRFCINPNAGFVHQLQEYEAIYLAK | not failed |
| SLRSMVSDSVDEIVDGVSKTTAEVINGRKSIAQYATSLIENNPEPDNVRTIISQPLIKNTFLLVGFGLEKDGSNINNDPSWNPGPTWDPRVRPWYKDAKNAGKLVITAPYADSASGEILVSVATPVKDSATGQFLGSIFYDVSLAELAELVNEVKLFDAGYVFIVSEDGTTIAHPKKEFNGKPMSEFLGESKINVDTHQVIINGKPYAVSFSDVEGEDWYVGVVIDEEIAYAALDELRRS | not failed |
| SLSPAELHADSIVIDGLIIAKWNRELFEDMRKGGLTAANCTVSVWEGFQATVNNIVASNKLIRDNSDLVIPVRSTADIRKAKEQGKTGILYGFQNAHAFEDQIGYVEVFKQLGVGIVQMCYNTQNLVGTGCYERDGGLSGFGREIVAEMNRVGIMCDLSHVGSKTSEEVILESKKPVCYSHCLPSGLKEHPRNKSDEELKFIADHGGFVGVTMFAPFLKKGIDSTIDDYAEAIEYVMNIVGEDAIGIGTDFTQGHGHDFFEWLTHDKGYARRLTNFGKIVNPLGIRTVGEFPNLTETLLKRGMPERVVRKVMGENWVRVLRDVWGE | not failed |
| SLSRRKPNPVIVADIRQAEGALAEIATIDRKVGEIEAQMNEAIDAAKARASQKSAPLLARRKELEDGVATFATLNKTEMFKDRKSLDLGFGTIGFRLSTQIVQMSKITKDMTLERLRQFGISEGIRIKEDVNKEAMQGWPDERLEMVGLKRRTTDAFYIEINREEVADTAA | not failed |
| SLSTVNIKSTGVTSTELAEIGEHQSEMPGVKVGTSWTRSYPNGTDLSSVLGTVTTEKQGLPSDSIKTLLAEGYSRDDSVGQSQLEKQYENVLRGTKSQTEVKTQDGVIQKEIKKYGGQKGDNVQLTIN | failed |
